Numbering of substitutions follows the chain as printed. Several values for one entry are separate records, joined by “and”; a condition that tells them apart may be missing. Equal entries are not always repeated.
Experiments:
[1] = target: T1, cynomolgus FcRn (cynomolgus, UniProt Q8SPV9 24-297; Q8SPW0 21-119); experiment: SPR, pH 6.0, steady state; pH 6.0; fourth replicate
T1 construct: also called Cyno FcRn

[2] = target: T2, human CD32a R131 (human, UniProt P12318 36-218, limits assumed); experiment: SPR, steady state, average
T2 construct: also called FcγRIIa R131
T2 sequence (looked up): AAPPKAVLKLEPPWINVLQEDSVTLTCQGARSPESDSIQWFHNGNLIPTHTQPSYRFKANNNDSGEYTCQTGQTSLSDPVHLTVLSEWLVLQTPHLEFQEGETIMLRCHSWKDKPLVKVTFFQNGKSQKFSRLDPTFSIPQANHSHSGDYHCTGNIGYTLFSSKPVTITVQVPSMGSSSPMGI

[3] = target: T3, human BAFF-R expressed on cells (human, UniProt Q96RJ3 1-184); experiment: flow cytometry, human BAFF-R CHO cells
T3 construct: Cell surface BAFF-R, endogenous on B cell lines and primary B cells or overexpressed on isogenic CHO cells; also called hBAFF-R; hBAFF-R-CHO

[4] = target: T4, cynomolgus CD16 (cynomolgus, UniProt Q8SPW2 17-208, limits assumed); experiment: SPR, average
T4 construct: also called Cyno CD16; cynomolgus FcγRIII

[5] = target: T5, human CD16a V158 (human, UniProt P08637 17-208); experiment: SPR, control
T5 construct: also called hCD16aV; hCD16a V158

[6] = target: T6, cynomolgus NKG2D (recombinant mFc-tagged dimer) (cynomolgus, UniProt P61252 78-216); experiment: SPR, steady state fit
T6 construct: also called cyno NKG2D
T6 sequence (looked up): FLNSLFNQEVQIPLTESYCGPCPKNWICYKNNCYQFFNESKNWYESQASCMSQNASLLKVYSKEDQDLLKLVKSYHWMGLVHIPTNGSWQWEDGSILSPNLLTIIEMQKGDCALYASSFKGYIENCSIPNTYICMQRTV
From the text: (§1) NKG2D is a native dimer, therefore recombinant mFc-tagged NKG2D dimer was used for this experiment. Two different fits were utilized to obtain the equilibrium affinity data: steady state affinity fit and kinetic fit.

[7] = target: T7, human NKG2D (recombinant mFc-tagged dimer) (human, UniProt P26718 78-216); experiment: SPR, steady state fit
T7 construct: also called hNKG2D
T7 sequence (looked up): T6 sequence (looked up) with N38D, I128T
From the text: as §1

[8] = target: T8, human CD64 (human, UniProt P12314 16-288, limits assumed); experiment: SPR, average
T8 construct: also called FcγRI
Procedure: Binding analyses as described in this Example were performed using SPR, as described in Example 4.

[9] = target: T6, cynomolgus NKG2D (recombinant …); experiment: SPR, steady state fit, average
From the text: as §1

[10] = target: T7, human NKG2D (recombinant mFc-tagged …); experiment: SPR, steady state fit, average
From the text: as §1

[11] = target: T3, human BAFF-R expressed on cells; experiment: flow cytometry, BJAB cells, after 4 weeks at 40 °C
[12] = target: T3, human BAFF-R expressed on cells; experiment: blocking of BAFF-biotin on hBAFF-R CHO cells
[13] = target: T9, human FcRn (human, UniProt P55899 24-297; P61769 21-119); experiment: SPR, pH 6.0, steady state; pH 6.0; third replicate
[14] = target: T7, human NKG2D (recombinant mFc-tagged …); experiment: SPR, kinetic fit, after 4 weeks at 40 °C
[15] = target: T5, human CD16a V158; experiment: SPR
[16] = target: T3, human BAFF-R expressed on cells; experiment: flow cytometry, Jeko-1 cells
[17] = target: T6, cynomolgus NKG2D (recombinant …); experiment: SPR, steady state fit; remark: listed apart in the source
From the text: Two different fits were utilized to obtain the equilibrium affinity data: steady state affinity fit and kinetic fit.

[18] = target: T9, human FcRn; experiment: SPR, pH 6.0, steady state; pH 6.0; second replicate
[19] = target: T1, cynomolgus FcRn; experiment: SPR, pH 6.0, steady state; pH 6.0; third replicate
[20] = target: T5, human CD16a V158; experiment: SPR, kinetic fit, average
[21] = target: T3, human BAFF-R expressed on cells; experiment: flow cytometry, CHO-hBAFF-R cells
[22] = target: T10, human CD32b (human, UniProt P31994 46-217, limits assumed); experiment: SPR, steady state, average
T10 construct: also called FcγRIIb
T10 sequence (looked up): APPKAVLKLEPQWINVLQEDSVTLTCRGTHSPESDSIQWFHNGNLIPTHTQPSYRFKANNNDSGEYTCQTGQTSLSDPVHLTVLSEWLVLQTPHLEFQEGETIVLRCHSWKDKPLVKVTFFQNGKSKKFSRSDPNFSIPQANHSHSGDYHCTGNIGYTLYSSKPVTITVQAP

T8 sequence (P12314 16-288 limits assumed): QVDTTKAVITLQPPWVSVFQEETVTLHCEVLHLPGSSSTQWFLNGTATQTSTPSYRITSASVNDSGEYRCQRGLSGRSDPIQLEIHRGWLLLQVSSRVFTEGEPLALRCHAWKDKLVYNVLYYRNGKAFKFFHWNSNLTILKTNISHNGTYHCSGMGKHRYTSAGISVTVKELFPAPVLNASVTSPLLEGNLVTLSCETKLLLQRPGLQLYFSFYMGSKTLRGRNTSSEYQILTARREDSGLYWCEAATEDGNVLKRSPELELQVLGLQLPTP
T5 sequence (P08637 17-208 F176V limits assumed): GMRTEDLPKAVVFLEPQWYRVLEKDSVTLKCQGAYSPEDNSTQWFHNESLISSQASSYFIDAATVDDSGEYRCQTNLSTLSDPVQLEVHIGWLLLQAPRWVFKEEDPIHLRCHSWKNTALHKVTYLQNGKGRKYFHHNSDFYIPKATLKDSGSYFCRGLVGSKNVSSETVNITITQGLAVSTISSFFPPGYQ
T9 sequence (P55899 24-297 limits assumed, chain 1 of 2): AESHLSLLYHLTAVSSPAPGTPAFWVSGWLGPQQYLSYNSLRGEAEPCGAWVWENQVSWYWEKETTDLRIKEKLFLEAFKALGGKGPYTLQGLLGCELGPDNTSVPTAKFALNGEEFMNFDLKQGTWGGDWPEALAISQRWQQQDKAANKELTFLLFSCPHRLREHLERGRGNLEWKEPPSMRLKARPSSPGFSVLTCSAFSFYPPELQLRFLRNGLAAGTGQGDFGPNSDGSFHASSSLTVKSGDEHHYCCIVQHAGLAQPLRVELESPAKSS
T9 sequence (P61769 21-119 limits assumed, chain 2 of 2): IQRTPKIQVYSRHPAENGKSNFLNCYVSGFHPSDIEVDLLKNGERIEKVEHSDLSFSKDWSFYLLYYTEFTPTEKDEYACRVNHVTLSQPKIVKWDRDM
T1 sequence (Q8SPV9 24-297 limits assumed, chain 1 of 2): as the sequence (P55899 24-297 limits assumed, chain 1 of 2) above, with N39D, E44Q, G99S, S189G, S190N, L217M, S269T counted along it
T1 sequence (Q8SPW0 21-119 limits assumed, chain 2 of 2): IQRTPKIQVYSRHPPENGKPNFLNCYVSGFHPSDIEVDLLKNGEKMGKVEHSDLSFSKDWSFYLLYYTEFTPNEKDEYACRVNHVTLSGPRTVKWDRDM
T4 sequence (Q8SPW2 17-208 limits assumed): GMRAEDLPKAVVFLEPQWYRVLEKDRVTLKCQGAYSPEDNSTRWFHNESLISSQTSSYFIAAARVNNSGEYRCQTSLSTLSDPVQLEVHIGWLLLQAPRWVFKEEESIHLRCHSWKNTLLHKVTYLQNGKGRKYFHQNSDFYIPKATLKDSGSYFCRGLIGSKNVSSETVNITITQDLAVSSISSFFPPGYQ

B1: AB1424/AB1612 F3′ TriNKET (bispecific antibody, human IgG1, kappa)
chain: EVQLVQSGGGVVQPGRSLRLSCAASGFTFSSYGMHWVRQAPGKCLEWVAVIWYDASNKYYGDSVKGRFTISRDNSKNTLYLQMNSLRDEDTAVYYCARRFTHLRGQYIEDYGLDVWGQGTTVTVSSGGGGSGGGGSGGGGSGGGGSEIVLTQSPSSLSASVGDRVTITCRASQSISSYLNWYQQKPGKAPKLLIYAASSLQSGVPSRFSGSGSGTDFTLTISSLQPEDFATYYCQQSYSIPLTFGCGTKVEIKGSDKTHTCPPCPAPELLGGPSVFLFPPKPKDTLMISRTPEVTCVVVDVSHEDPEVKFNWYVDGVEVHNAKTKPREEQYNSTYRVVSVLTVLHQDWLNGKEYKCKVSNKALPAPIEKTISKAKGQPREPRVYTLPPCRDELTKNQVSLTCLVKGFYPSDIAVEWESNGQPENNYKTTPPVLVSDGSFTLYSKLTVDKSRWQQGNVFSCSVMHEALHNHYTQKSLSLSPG
heavy: EVQLVESGGGLVKPGGSLRLSCAASGFTFSSYSMNWVRQAPGKGLEWVSSISSSSSYIYYADSVKGRFTISRDNAKNSLYLQMNSLRAEDTAVYYCARGAPIGAAAGWFDPWGQGTLVTVSSASTKGPSVFPLAPSSKSTSGGTAALGCLVKDYFPEPVTVSWNSGALTSGVHTFPAVLQSSGLYSLSSVVTVPSSSLGTQTYICNVNHKPSNTKVDKKVEPKSCDKTHTCPPCPAPELLGGPSVFLFPPKPKDTLMISRTPEVTCVVVDVSHEDPEVKFNWYVDGVEVHNAKTKPREEQYNSTYRVVSVLTVLHQDWLNGKEYKCKVSNKALPAPIEKTISKAKGQPREPQVCTLPPSRDELTENQVSLTCLVKGFYPSDIAVEWESNGQPENNYKTTPPVLDSDGSFFLYSWLTVDKSRWQQGNVFSCSVMHEALHNHYTQKSLSLSPG
light: DIQMTQSPSSVSASVGDRVTITCRASQGISSWLAWYQQKPGKAPKLLIYAASSLQSGVPSRFSGSGSGTDFTLTISSLQPEDFATYYCQQGVSFPRTFGGGTKVEIKRTVAAPSVFIFPPSDEQLKSGTASVVCLLNNFYPREAKVQWKVDNALQSGNSQESVTEQDSKDSTYSLSSTLTLSKADYEKHKVYACEVTHQGLSSPVTKSFNRGEC
notes: Chain S: anti-BAFF-R scFv-CH2-CH3; chain H: anti-NKG2D VH-CH1-CH2-CH3; chain L: anti-NKG2D VL-CL; also called AB1612-002
Question: Which Kd [1] does the source give for B1 here?
Answer: 1000 nM

Question: And the Kd [2]?
Answer: 1400 nM

Question: And the EC50 [3]?
Answer: 3.09 nM

Question: And the koff [4]?
Answer: 0.021 s⁻¹

Question: And the kon [4]?
Answer: 76000 M⁻¹ s⁻¹

Question: And the Kd [5]?
Answer: 145 nM

Question: What about the koff [5] of the same binder?
Answer: 0.017 s⁻¹

Question: What about the kon [5] of the same binder?
Answer: 130000 M⁻¹ s⁻¹

Question: What about the Kd [6] of the same binder?
Answer: 501 nM and 516 nM and 535 nM and 530 nM

Question: What about the Kd [7] of the same binder?
Answer: 438 nM and 453 nM and 468 nM and 466 nM

Question: And the Kd [8]?
Answer: 3.2 nM

Question: What about the koff [8] of the same binder?
Answer: 0.00023 s⁻¹

Question: What about the kon [8] of the same binder?
Answer: 73000 M⁻¹ s⁻¹

Question: What about the Kd [9] of the same binder?
Answer: 520 nM

Question: What about the Kd [10] of the same binder?
Answer: 456 nM

Question: What about the EC50 [11] of the same binder?
Answer: 0.83 nM

Question: And the IC50 [12]?
Answer: 6.76 nM

Question: And the Kd [13]?
Answer: 1100 nM

Question: What about the Kd [14] of the same binder?
Answer: 493 nM

Question: What about the koff [15] of the same binder?
Answer: 0.014 s⁻¹ and 0.013 s⁻¹

Question: And the kon [15]?
Answer: 110000 M⁻¹ s⁻¹ and 100000 M⁻¹ s⁻¹

Question: What about the EC50 [16] of the same binder?
Answer: 0.13 nM

Question: What about the “Max FOB” value [16] of the same binder?
Answer: 7 fold over background

Question: What about the Kd [17] of the same binder?
Answer: 618 nM and 630 nM and 589 nM and 600 nM

Question: What about the Kd [18] of the same binder?
Answer: 1000 nM

Question: What about the Kd [19] of the same binder?
Answer: 1000 nM

Question: What about the Kd [20] of the same binder?
Answer: 129 nM

Question: And the EC50 [21]?
Answer: 0.7 nM

Question: What about the “Max FOB” value [21] of the same binder?
Answer: 146 fold over background

Question: What about the Kd [22] of the same binder?
Answer: 5900 nM
